Results as given in patent US7838294B2, “Inhibitors of the JNK signal transduction pathway and methods of use” (University of Massachusetts, priority 1997, dated 2010).

Columns and labels:
[1] = tested on: Elk-1 transcriptional activity; assay: GAL4 luciferase reporter assay in CHO cells: GAL4-Elk-1; assay type: cell-based, Chinese hamster; conditions: FIG. 4B
Protocol: (§1) In these experiments, CHO cells were cotransfected with constructs encoding the transcription factors and JIP-1 using previously described methods. Dérijard et al., supra; Sluss et al., supra; Gupta et al., supra. A luciferase reporter plasmid was used to monitor the expression of the transcription factors. Transfection efficiency was determined using a β-galactosidase expression vector. Constructs used in these experiments included GAL4 fusions with the c-myc, Sp1 and VP16 activation domains (described in Whitmarsh et al., Science, 269:403 (1995); Davis, Science, 269:403 (1995); Gille et al., Curr. Biol., 5:1191 (1995)). […]
(§2) Transfected cells were activated by treatment with 10% (v/v) fetal calf serum, and luciferase and β-galactosidase activities were measured in cell lysates at 48 hours post-transfection. The data are presented as the ratio of luciferase activity (light units) to β-galactosidase activity (OD units) measured in the cell extracts (mean±SEM (n=3)), and are normalized to the luciferase activity detected in the absence of JBD (FIGS. 4A and 4B) or ATF2 (FIG. 4C).

JNK = biological target: T1, JNK (Homo sapiens, UniProt P45983); assay: Immunofluorescence: subcellular distribution of JNK on JIP-1 expression; assay type: cell-based; conditions: HA-JNK1 with Flag-JIP-1; control and UV-irradiated cells
T1 construct: expressed in transfected cells; host or cells: COS-1 cells (co-immunoprecipitation)
Protocol: The subcellular distribution of JIP-1 was analyzed by performing indirect immunofluorescence on JIP-1-expressing cells. In these experiments, the cells were grown on coverslips, fixed with 4% paraformaldehyde, permeabilized with 0.25% Triton X-100, and processed for immunofluorescence microscopy. JIP-1 was detected in the cytoplasm, but not the nucleus, of control and UV-irradiated cells. In contrast, JNK is detected in both the cytoplasmic and nuclear compartments.
It is likely that it is JNK in the nucleus which is involved in the regulation of gene expression. Since JIP-1 is cytoplasmic, it was unclear how it could inhibit the nuclear function of JNK. To investigate the mechanism of JIP-1 action, the distribution of JNK was examined in cells that had been transfected with either hemagglutinin (HA)-tagged JNK1 (HA-JNK1) alone, or HA-JNK1 and Flag-tagged JIP-1 (Flag-JIP-1). In these experiments, the cells were exposed to a potent JNK activator (40 J/m^2 UV-C) for one hour prior to processing for immunofluorescence. The primary antibodies used were rabbit anti-HA (12CA5; Boehringer Mannheim), which recognizes HA-tagged JNK1; and mouse monoclonal anti-Flag (M2; IBI-Kodak), which recognizes Flag-tagged JIP-1. The secondary antibodies were Texas Red-goat anti-mouse Ig and fluoroscein isothiocyanate-conjugated donkey anti-rabbit Ig (Jackson Immunoresearch). […]

p38 MAP kinase = biological target: T2, p38 MAP kinase (Homo sapiens, UniProt Q16539); assay: Immunofluorescence: subcellular distribution of p38 MAP kinase on JIP-1 expression; assay type: cell-based
T2 construct: expressed in transfected cells

p38 = assay: Immune complex protein kinase assay: p38, substrate GST-ATF2; assay type: biochemical, Chinese hamster; conditions: in vitro, 3 μg GST-ATF2
Protocol: (§3) To test whether JIP-1 competes with Jun and ATF2 for interaction with JNK, the effect of JIP-1 on transcription factor-mediated phosphorylation of exogenous substrates was analyzed using an in vitro protein kinase assay. In these experiments, Chinese hamster ovary (CHO) cells were serum-starved for one hour. In some experiments, the cells were treated with 10 ng/ml mouse interleukin 1 or 100 nM phorbol myristic acetate. JNK, p38, and ERK protein kinase activity was measured in an immune complex kinase assay using 3 μg of the substrates GST-Jun, GST-ATF2, and myelin basic protein (MBP), respectively. Protein kinase assays were performed using 40 μl 20 mM Hepes (pH 7.4), 20 mM MgCl2, 20 mM β-glycerophosphate, 2 mM dithiothreitol, 0.1 mM sodium orthovanadate, 50 μM [γ-^32P]ATP (10 Ci/mmol). After incubation for 30 minutes at 30° C., phosphorylation of substrates was analyzed by polyacrylamide gel electrophoresis and autoradiography.

ERK2 = assay: Immune complex protein kinase assay: ERK, substrate MBP; assay type: biochemical, Chinese hamster; conditions: in vitro, 3 μg myelin basic protein
Protocol: as §3

[2] = tested on: c-Jun transcriptional activity; assay: GAL4 luciferase reporter assay in CHO cells: GAL4-c-Jun; assay type: cell-based, Chinese hamster; conditions: FIG. 4B
Protocol: as §1, §2

JNK2 = biological target: T3, JNK2 (Homo sapiens, UniProt P45984); assay: Co-immunoprecipitation of JIP-1 with JNK2; assay type: binding; conditions: protein immunoblot
T3 construct: expressed in transfected cells

T1 sequence (P45983 1-384 isoform P45983-2): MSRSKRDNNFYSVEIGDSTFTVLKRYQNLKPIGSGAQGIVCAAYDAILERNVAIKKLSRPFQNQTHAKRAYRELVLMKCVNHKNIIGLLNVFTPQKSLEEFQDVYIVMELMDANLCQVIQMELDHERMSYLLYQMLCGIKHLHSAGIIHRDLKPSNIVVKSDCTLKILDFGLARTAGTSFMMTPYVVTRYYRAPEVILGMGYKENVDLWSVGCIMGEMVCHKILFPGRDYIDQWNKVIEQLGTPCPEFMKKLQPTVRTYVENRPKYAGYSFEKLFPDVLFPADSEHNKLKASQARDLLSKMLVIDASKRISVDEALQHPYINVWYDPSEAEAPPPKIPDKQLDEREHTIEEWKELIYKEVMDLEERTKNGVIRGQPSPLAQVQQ
T2 sequence (Q16539 whole entry): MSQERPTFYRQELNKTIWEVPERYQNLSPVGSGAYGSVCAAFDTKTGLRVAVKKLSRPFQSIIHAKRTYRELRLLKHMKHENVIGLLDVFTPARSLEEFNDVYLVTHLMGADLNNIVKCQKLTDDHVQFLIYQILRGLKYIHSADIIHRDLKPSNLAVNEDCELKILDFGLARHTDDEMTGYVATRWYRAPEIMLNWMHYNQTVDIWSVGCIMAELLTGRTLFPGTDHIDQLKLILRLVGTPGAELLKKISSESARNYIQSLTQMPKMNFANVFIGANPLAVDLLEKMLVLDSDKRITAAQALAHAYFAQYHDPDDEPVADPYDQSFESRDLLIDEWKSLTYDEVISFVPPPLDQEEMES

B1: JIP-1: 660 amino acid murine cytoplasmic protein that specifically binds JNK (protein)
chain: MAERESGLGGGAASPPAASPFLGLHIASPPNFRLTHDISLEEFEDEDLSEITDECGISLQCKDTLSLRPPRAGLLSAGSSGSAGSRLQAEMLQMDLIDAAGDTPGAEDDEEEEDDELAAQRPGVGPPKAESNQDPAPRSQGQGPGTGSGDTYRPKRPTTLNLFPQVPRSQDTLNNNSLGKKHSWQDRVSRSSSPLKTGEQTPPHEHICLSDELPPQGSPVPTQDRGTSTDSPCRRSAATQMAPPSGPPATAPGGRGHSHRDRIHYQADVRLEATEEIYLTPVQRPPDPAEPTSTFMPPTESRMSVSSDPDPAAYSVTAGRPHPSISEEDEGFDCLSSPERAEPPGGGWRGSLGEPPPPPRASLSSDTSALSYDSVKYTLVVDEHAQLELVSLRPCFGDYSDESDSATVYDNCASASSPYESAIGEEYEEAPQPRPPTCLSEDSTPDEPDVHFSKKFLNVFMSGRSRSSSAESFGLFSCVINGEEHEQTHRAIFRFVPRHEDELELEVDDPLLVELQAEDYWYEAYNMRTGARGVFPAYYAIEVTKEPEHMAALAKNSCVLEISVRGVKIGVKADDALEAKGNKCSHFFQLKNISFCGYHPKNNKYFGFITKHPADHRFACHVFVSEDSTKALAESVGRAFQQFYKQFVEYTCPTEDIYLE
basal transcriptional activity of Elk-1 mutated at JNK phosphorylation sites ([1]; GAL4-Elk-1 (S383A)): not markedly inhibited | Elk-1 transcriptional activity ([1]; wild type GAL4-Elk-1, CHO cells): partial inhibition | amount of nuclear JNK (JNK): reduces | subcellular distribution of p38 MAP kinase (p38 MAP kinase): no significant effect | phosphorylation of substrate by p38 (p38): no significant change | phosphorylation of substrate by ERK2 (ERK2): no significant change | basal transcriptional activity of c-Jun mutated at JNK phosphorylation sites ([2]; GAL4-c-Jun (S63A/S73A)): not markedly inhibited | c-Jun transcriptional activity ([2]; wild type GAL4-c-Jun, CHO cells): Significant inhibition | co-immunoprecipitation of JIP-1 with JNK2 (JNK2): observed
